{"source": "paper PMC10335668", "about": "(2023)", "parents": {"B1": {"name": "HCV E1 glycoprotein, H77 WT isolate [hepatitis C virus] / CD81 receptor [not stated] (parent complex)", "chain 1": "YQVRNSSGLYHVTNDCPNSSVVYEAADAILHTPGCVPCVREGNASRCWVAVTPTVATRDGKLPTTQLRRHIDLLVGSATLCSALYVGDLCGSVFLVGQLFTFSPRHHWTTQDCNCSIYPGHITGHRMAWNMMMNWSPTAALVVAQLLRIPQAIMDMIAGAHWGVLAGIKYFSMVGNWAKVLVVLLLFAGVDA", "chain 2": "MGVEGCTKCIKYLLFVFNFVFWLAGGVILGVALWLRHDPQTTNLLYLELGDKPAPNTFYVGIYILIAVGAVMMFVGFLGCYGAIQESQCLLGTFFTCLVILFACEVAAGIWGFVNKDQIAKDVKQFYDQALQQAVVDDDANNAKAVVKTFHETLDCCGSSTLTALTTSVLKNNLCPSGSNIISNLFKEDCHQKIDDLFSGKLYLIGIAAIVVAVIMIFEMILSMVLCCGIRNSSVY"}}}
{"variants_of": "B1", "assay": "CD81 receptor binding (method in S1 Text, not given); parent: 1; read off a plot"}
{"variant": "chain 1 C16A, chain 1 C35A", "ratio to parent": "~0.8"}
{"variant": "chain 1 E24C, chain 1 I29C", "ratio to parent": "~0.65"}
{"variant": "chain 1 C81A, chain 1 C90A", "ratio to parent": "~1.1"}
{"variant": "chain 1 C38A, chain 1 C113A", "ratio to parent": "~0.85"}
{"variant": "chain 1 C47A, chain 1 C115A", "ratio to parent": "~0.85"}
{"variant": "chain 1 R4C, chain 1 Q111C", "ratio to parent": "~0.6"}
